We go through 1 molecule from patent US5708158, “Nuclear factors and binding assays” (Tularik Inc., dated 1998).

The target of this assay is T1, NFATc-589 (translated in vitro) (human).
T1 chain: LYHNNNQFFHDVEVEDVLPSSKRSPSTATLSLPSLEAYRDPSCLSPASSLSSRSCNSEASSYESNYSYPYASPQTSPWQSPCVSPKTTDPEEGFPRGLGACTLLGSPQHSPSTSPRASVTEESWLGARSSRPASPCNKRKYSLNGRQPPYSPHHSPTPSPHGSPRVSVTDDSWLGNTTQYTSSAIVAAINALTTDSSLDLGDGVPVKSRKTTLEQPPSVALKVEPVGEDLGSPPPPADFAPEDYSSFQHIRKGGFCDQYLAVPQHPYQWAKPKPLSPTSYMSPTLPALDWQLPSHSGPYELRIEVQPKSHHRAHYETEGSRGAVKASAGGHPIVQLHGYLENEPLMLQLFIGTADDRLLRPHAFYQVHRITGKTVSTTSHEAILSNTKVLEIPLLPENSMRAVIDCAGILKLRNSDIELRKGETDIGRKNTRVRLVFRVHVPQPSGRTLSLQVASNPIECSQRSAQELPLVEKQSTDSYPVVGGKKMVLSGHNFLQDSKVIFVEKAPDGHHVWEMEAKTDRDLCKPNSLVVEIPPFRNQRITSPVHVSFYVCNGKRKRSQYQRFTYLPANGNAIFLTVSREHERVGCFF
Kind of assay: gel mobility shift assay with two co-translated NFATc versions of different size; test for dimers on DNA. An excerpt: After determining that NFAT rel domains were monomers in solution, we then considered the possibility that NFAT proteins might form dimers when bound to DNA. To address this question we carried out gel mobility shift assays with two different sized versions of NFATc translated in vitro (Hope and Struhl 1987). The shorter version contains the rel similarity region and a small amount of flanking residues and is referred to as NFATc-309. This construct is equivalent to the one that was expressed in *E. coli*. The larger version, NFATc-589, contains additional N-terminal sequences. When expressed individually in a rabbit reticulocyte lysate both versions of NFATc were active and produced protein-DNA complexes with different mobilities. When the two different NFATc proteins were mixed by co-translation the same protein-DNA complexes were apparent and no intermediate species was detectable, as would be expected if the proteins were forming dimers on the DNA.
Electrophoretic mobility shift assays were performed with the indicated amounts of proteins in 50 mM KCl, 25 mM HEPES, 0.05 mM EDTA, 5% glycerol, 1 mM DTT with […] of poly(dI-dC) and 100 ng of BSA. The binding reactions and electrophoresis were carried out at room temperature. The samples were run on a 5% polyacrylamide, 0.5× TBE gel at 200 V.

B1: NFATc-309 (translated in vitro) (other)
chain: MSPTLPALDWQLPSHSGPYELRIEVQPKSHHRAHYETEGSRGAVKASAGGHPIVQLHGYLENEPLMLQLFIGTADDRLLRPHAFYQVHRITGKTVSTTSHEAILSNTKVLEIPLLPENSMRAVIDCAGILKLRNSDIELRKGETDIGRKNTRVRLVFRVHVPQPSGRTLSLQVASNPIECSQRSAQELPLVEKQSTDSYPVVGGKKMVLSGHNFLQDSKVIFVEKAPDGHHVWEMEAKTDRDLCKPNSLVVEIPPFRNQRITSPVHVSFYVCNGKRKRSQYQRFTYLPANGNAIFLTVSREHERVGCFF
Consider B1, for which the binding result is on record as “no binding”.
